Laboratory results published in the DeepSol protein solubility set.

Assay: soluble on expression in E. coli; label from the status in PepcDB or PDB records
In the case of “MGSSHHHHHHSSGLVPRGSHMGSSHHHHHHSSGLVPRGSHMSQLAHNLTLSIFDPVANYRAARIICTIGPSTQSVEALKGLIQSGMSVARMNFSHGSHEYHQTTINNVRQAAAELGVNIAIALDTKGPEIRTGQFVGGDAVMERGATCYVTTDPAFADKGTKDKFYIDYQNLSKVVRPGNYIYIDDGILILQVQSHEDEQTLECTVTNSHTISDRRGVNLPGCDVDLPAVSAKDRVDLQFGVEQGVDMIFASFIRSAEQVGDVRKALGPKGRDIMIICKIENHQGVQNIDSIIEESDGIMVARGDLGVEIPAEKVVVAQKILISKCNVAGKPVICATQMLESMTYNPRPTRAEVSDVANAVFNGADCVMLSGETAKGKYPNEVVQYMARICLEAQSALNEYVFFNSIKKLQHIPMSADEAVCSSAVNSVYETKAKAMVVLSNTGRSARLVAKYRPNCPIVCVTTRLQTCRQLNITQGVESVFFDADKLGHDWGKEHRVAAGVEFAKSKGYVQTGDYCVVIHADHKVKGYANQTRILLVE”, the “soluble on expression in E. coli” value was “soluble”. In the case of “MALLEICCYSMECALTAQRNGADRIELCAAPKEGGLTPSFGVLRSVREHITIPVHPIIRPRGGDFYYTDGEFAAMLEDIRLVRELGFPGLVTGVLTVDGDVDMSRMEKIMAAAGPLAVTFHRAFDMCANPFNALKNLADAGVARVLTSGQKADAAQGLSIIMELIAQGDAPTIMAGAGVRANNLQNFLDAGVREVHSSAGVLLPSPMRYRNQGLSMSADIQADEYSRYRVEGAAVAEMKGIIVRHQAKLEHHHHHH”, the “soluble on expression in E. coli” value was “soluble”. For “MKKVLLVNGPNLNRLGVREVNVYGKGTLATLEADMKQEAEAMGVELECFQSNHEGAIIDRIHEAEDIYEGIILNPGAFTHYSYAIRDAIASISIPVIEVHISNIHQRESFRHESVTAAVCAGQIVGFGFYGYKLALFALMEKLREA”, the “soluble on expression in E. coli” value was “not soluble”. In the case of “MEDPQSKEPAGEAVALALLESPRPEGGEEPPRPSPEETQQCKFDGQETKGSKFITSSASDFSDPVYKEIAITNGCINRMSKEELRAKLSEFKLETRGVKDVLKKRLKNYYKKQKLMLKESNFADSYYDYICIIDFEATCEEGNPPEFVHEIIEFPVVLLNTHTLEIEDTFQQYVRPEINTQLSDFCISLTGITQDQVDRADTFPQVLKKVIDLMKLKELGTKYKYSLLTDGSWDMSKFLNIQCQLSRLKYPPFAKKWINIRKSYGNFYKVPRSQTKLTIMLEKLGMDYDGRPHCGLDDSKNIARIAVRMLQDGCELRINEKMHAGQLMSVSSSLPIEGTPPPQMPHFRK”, the “soluble on expression in E. coli” value was “soluble”. With “MSLRIESGVCYVINEFCALGNTYMPIDKLVKNCINVLNVKKEEVEKAIYECTLSQKIKVEIINGENCVFTMEYYYCEIGITRKIITLAYDSYKSLEIDVDQKIIQFENENKIKFAPSQVEAIEGAFSNGIEVITGGPGTGKTTIIRCITYIFEELNMKVFMAAPTGRAAKRMSESTGREAKTIHRMLELGYEDEVFFDNNNYSTLQCDVVIIDEASMIDVVLMNSLLKSIGMGTRVIIVGDVDQLPSVGPGNVLRDIIESKCVKVIRLNNIFRQAKESMITVNAHKINSGEMPLLNKKDKDFYFIREDNAEAITNTIISLVYKRLPLFNKSWKAARDIQVLAPMKKGIAGVANLNVSLQSIINPPHKSKDEIKFRDNIFRVGDKVMQIKNNYMLKEGHHHHHH” the “soluble on expression in E. coli” value was “not soluble”. In the case of “MGSDKIHHHHHHMRAKELQDWFPEARISDQPVEKEGYLTLPLASQQWILLEEAGLSEREKQLVALLTQQEQARSLNPWYSYLVEGKGQAPQVFKKIQLVYCHLSYFQQENLASWLDMMRTLFPNCQTVLQVGAQDYVFVLQQDKYTSVRDILSDTIEAVEYDFGLRLSIMLGQVWSQTGHQALSDLIKAERDLFKTWWRQGHQGVHTFSQLYLWSMGERLVDLKPIKECLHQMILDQDQIQEIILSLWENSAVLTKTAQQLYLHRNSLQYKIDKWEELTGLQLKELTDLTLCYQLILGSLSTIVGL”, the “soluble on expression in E. coli” value was “not soluble”. For “MSKADENDANLTENGVHKSRSDSEINSHTSSIHKSSSQHRRLFIDDISTIEASAGDRVWATCSGAGDATELITIHFLGDQFEESAIDVVRKHSLVMFTVPSLKVDSELEVELRFSTSNDNVTTISFKYLPRKIQRSHTQEISLFDNLLEFATNGDTISLLQPFVAQISKQDIEGNTVFHVAAKNGQSFSLKLLLSVIPPDIKNEVINVQNTHGLTALHVAIRTGDPDAVHYLMNHGAKIDISDNHGSTALHYLGDAYNESIFKEILEPSRGQRFDVNQLNSEGFAPIHVAVRRLKLSLIEMLIEAGALIDFLDTEKKRNALMHAIEMNDFETIQLLVERGSGTNIEDESGETALSLAVKNVNYPVIGLLLDNGADPNRQNSKGICLADSEDSVIQNIINGDRPELPKKEAFGVPNDLAISRSPLFGRSHPDQAPGEESGRHRVVKRSREEILNDAQTLLAETDSMAPRVSRISTSESEDEQQPGPSTSSGTRRRRSEWDRNPKLSDSVCNLDYLTRIRVAKIFDDQCKWQRLAQQLNCDHMVELISICSSGDDSSPTMILLDQFEQLEDSSISRLRDAMNQMAEDDAVKLIDSRYVY”, the “soluble on expression in E. coli” value was “not soluble”. For “RAIGQIRSADGGRTVDVDLAQPLHDWRVLFNNLLPSHVLRGGDSDFSTVLADGIPASAGRYSFAGVDRQRGIVTLNRNDRFWGEKPATVENIKFREVTDIAQGRELLRTGQIKFLDITPTEVAREAFELMPNTQVRTTTTSLNLQLIANTHLTLEQRADLQSLIDVHTVARIAMGRSTDLGVGDQPYEPHADHLMSLGRPVRIGVDPSDPEAQMAARVLSDVLARKSVKTQLVETDTTDLIGSK”, the “soluble on expression in E. coli” value was “not soluble”. In the case of “MQDLKVISKHYAKALKNHTKSDLALLEEIVVGLKNATEAIRQHKLNQVLAHVSLKVKKEVVFEILEKITSIKACSVLKPVMEVVLKNNRLDMLELITEELSFDSKRTLEATLLVPEKLENNELEAVQQKLQARFNAPVEITQDTWSKKGVSLSVSSLDLEIGFSKEDILKKIEKQVIQSI”, the “soluble on expression in E. coli” value was “not soluble”. With “MLRPYVAEWFRSTYGSFTEPQRQAIPLVKQGKSVLITSPTGTGKTLAAFLGVIDEILFLMENRWEEKGILAVYVSPLRALNNDIRRNLEEPLRGIEEKAREMGLEPPRVKVAVRTSDTTPYEKQKMVKDPPHILITTPESLAAALAAPKFRERLSTVKWVVLDEIHELASNKRGAHLMVSVERLEELVREAGGKPLRRIGLSATIAPLDVVANFLGGFDDEGRPREVHIVDARFAKPIDIKVITPDVDLLRDPPDKINEAIYRKIAELVKQHRTTLIFTNTRSATERVVHKLKQILVKEGIASEDQIEAHHSSLSRNLRLDVEERLKRGELKVVVSSTSLELGIDIGYIDLVILLSSPKSVSRLLQRVGRAGHRIRDVSKGRLIVVDRDDLVECSVLADCAMKKFIDRVRIPMKPLDVLAQHIVGMSIEKKWRLEDAYRVVKRAYNFKDLSFEEFMSVVRFLAGKHGLEGEGVYSKIWLDEEEGLFGRKKSARMIYLLNVGVIPDETKIRVYTRDGKYVGDLEEEFVEILVPGDVFVLGGRTYRFLKSEGLRVIVERADDARPTVPSWFSEMLPLSFDSALKVGEFRRVFSALASSNPRAAVEKLVKEYYLEERAAATIVEYILEQLGYIGVVPSDKLVLIEYFPYEDGWGIVFHTLFGRRVNDALSRAYAVALSRRIGLPVRVAVTDNGFMLTVSEAGKPDASLLEKLIRDVTPENIRGILEEAISRTELMKRRFKHVAARMFIVLRRYKGKEVSPERLQLNSQKLLEVFLEEMKDSPPIRETFREILEDYMDIGAAGKVLEWIRKGEIEIVIKGPLPYPSPMAHSIVVRGYSDVVLMEDRRKMLMILREKVLEYIRKGRAAPTWVGGDGKGRLLKEEQ” the “soluble on expression in E. coli” value was “soluble”. In the case of “MSLNLATLQSQFAKALHYQALGEDCDIASDEFTADERIQIYRNNFIVSLSEVLSATYPMVEALLGEECFEQIARQHVLSYPLKEGNVVHYGEGFQDTIMQFSQVIAQAPYSPEVARFEWHIDLARQAQYEQSNAAELKPLALLGEVSEEQQPALVLHLKKGCRSFDSNYAVFDLFSAIQTGQFEQLNINQLQQGVISIQANGEALCHALDADVFQLLQCLEQKQSLSEIPEVLLAHLNRIMALDIVDGFTLQSIEGHHHHHH”, the “soluble on expression in E. coli” value was “soluble”. For “MDIGLEVENIPSVNITSLKEAPIHISSKIQPHGILLVLAEPDLKILQVTNNTLNVFGRSAEDMVQKRLVDLLDAYQLDRIKSGLSEQNLEFINPTKILVRNKGIA”, the “soluble on expression in E. coli” value was “not soluble”. In the case of “MAHHHHHHMSFSKFMKCSTQLSRRLSNFEGKGTFNKSAFYNCTREKCSIVCLRKKMNVELKKICEISKMNKRNYSSECENYEFKAETKKLLQIVAHSLYTDKEVFIRELISNSSDAIEKLRFLLQSGNIKASENITFHIKVSTDENNNLFIIEDSGVGMNKEEIIDNLGTIAKSGSLNFLKKLKEQKESINRNNNINKNEIDNKINNNNNMDVPIEGNEKSQEGDIIGQFGVGFYSSFVVSNKVEVFTRSYDNNSSKGYHWVSYGNGTFTLKEVDNIPKGTKIICHLKDSCKEFSNIQNVQKIVEKFSSFINFPVYVLKKKKILQTRKDIEQNELNDHTQQNELNHHNDQNDHTQQNELNHHNDQNDHTQQNELNHHNDQNDHTQQNELNHHVEHHKNVVENKNDEYEKNMDNRTSDNIKPESLSKQNDYENMNQCNNEETVLNRTKELNEEHIVEEILVNKQKPLWCKDNVTEEEHRHFFHFLNKNKSYNEDNKSYLYNMLYKTDAPLSIKSVFYIPEEAPSRLFQQSNDIEISLYCKKVLVKKNADNIIPKWLYFVKGVIDCEDMPLNISRENMQDSSLINKLSRVVVSKILKTLEREADINEEKYLKFYKNYNYNLKEGVLEDSNKNHYKNSLMNLLRFYSINQNKFISLKQYVNNFRNNQKNIYYFSANDKNVALNSPYMEPFKKQNIDVLLLLEEIDEFVLMNLQTYKDAKFVSIDTSQNEDFDEAVLNTNKNDNEKKQSIFFNDEQKKELQAYFKQVLGSK”, the “soluble on expression in E. coli” value was “not soluble”. In the case of “MNYRHIYHAGNFADVFKHIIVTRIIEYLKRKEKAFRVIDTHAGIGIYDLSSLEAHKTGEWREGVYQLLSTPIPEDLKALLYPWCNIIETLNKGKKDILFYPGSPVLIRQLLRKQDRLTAIELHREDYHILAKNFAGDYQTKVLHLNGWLSLNAHLPPKEKRGFILVDPPFEKPGEFSRLIEGLMKAYRRFSGGIYALWYPVKYDKEIENFLHALHQTGIPKILQLEMRIRKSSIPPTMNGSGMILINPPYLLEEEIKKLSPFLIARLGQDKNAQITHKWIQKEQLLC”, the “soluble on expression in E. coli” value was “not soluble”. In the case of “MGSDKIHHHHHHMATQTDSEAALRIASGRKAFVEPLRLGERLKEIRLSNRWTLEDVSQRTGLARSTLSKIENDQISPTFSAVQKLIGGLGIDLPQLLTPPKPQSRTLGRRDLTRVGEGKQHPTPTYEHELLSWQLAQKRMIPFKTIVRARDFNEFSEWVRHDGEEFLMVLDGDIWLYTEFYEPLHLAQGDSIYFDSDMGHALISVSETDAVVLSVCTRGENA”, the “soluble on expression in E. coli” value was “not soluble”. For “MRKQLPVICVAAGIVLLAACTNDGGQQQTTVAPQPAVCNGPTVEISGAEPRYEPLNPTANQDYQRDGKSYKIVQDPSRFSQAGLAAIYDAEPGSNLTASGEMFDPMQLTAAHPTLPIPSYARITNLANGRMIVVRINDRGPYGTDRVISLSRAAADRLNTSNNTKVRIDPIIVAPDGSLSGPGMACTTVAKQTYALPPRPDLSGGMGSASSAPAQPQGDVLPVSNSTLKSDDTTGAPVSSSGFLGAPTTLAPGVLESNEPTPAPQPAPVSAPVAAPATAPATATPVSAPAAAAPVSAPVSAPAAAASGRFVVQVGAVSDQTRAQQYQQRLSQQFSVPGRVIQNGAVWRIQLGPFASKAEASALQQRLQTEAQLQSFIASAQ”, the “soluble on expression in E. coli” value was “not soluble”.
